# Source: PMC7334207, “Select amino acids in DGCR8 are essential for the UGU-pri-miRNA interaction and processing” (Communications Biology, 2020)
# T1: G478del WT (Homo sapiens, UniProt Q8WYQ5 285-478, del370-429)
# T1 sequence: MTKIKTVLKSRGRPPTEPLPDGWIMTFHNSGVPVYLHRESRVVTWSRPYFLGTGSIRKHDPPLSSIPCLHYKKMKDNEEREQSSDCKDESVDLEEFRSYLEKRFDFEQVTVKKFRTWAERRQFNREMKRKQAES
# T2: G478del WT-mut1 hybrid dimer (Homo sapiens, UniProt Q8WYQ5;Q8WYQ5 285-369+430-478;285-369+430-478, internal_change;W461A;A462G;E463Q;internal_change)
# T2 sequence 1: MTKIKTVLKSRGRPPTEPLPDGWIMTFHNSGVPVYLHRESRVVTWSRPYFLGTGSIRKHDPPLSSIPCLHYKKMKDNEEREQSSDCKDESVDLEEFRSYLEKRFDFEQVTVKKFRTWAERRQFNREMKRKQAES
# T2 sequence 2: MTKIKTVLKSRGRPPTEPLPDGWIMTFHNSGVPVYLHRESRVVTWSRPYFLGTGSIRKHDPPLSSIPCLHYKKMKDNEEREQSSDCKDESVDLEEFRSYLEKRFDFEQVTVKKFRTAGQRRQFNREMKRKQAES
# T3: G478del-mut1 (Homo sapiens, UniProt Q8WYQ5 285-478, W461A;A462G;E463Q;del370-429)
# T3 sequence: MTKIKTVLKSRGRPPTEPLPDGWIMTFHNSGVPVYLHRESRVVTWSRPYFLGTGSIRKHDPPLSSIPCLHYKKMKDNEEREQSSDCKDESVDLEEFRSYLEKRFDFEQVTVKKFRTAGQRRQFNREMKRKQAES
# T4: G478 (Rhed) (Homo sapiens, UniProt Q8WYQ5 285-478)
# T4 sequence: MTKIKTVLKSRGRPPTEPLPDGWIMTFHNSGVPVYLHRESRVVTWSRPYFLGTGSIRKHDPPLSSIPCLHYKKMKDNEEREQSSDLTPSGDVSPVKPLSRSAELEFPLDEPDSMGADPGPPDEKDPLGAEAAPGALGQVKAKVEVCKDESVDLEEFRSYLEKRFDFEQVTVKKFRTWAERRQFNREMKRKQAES
# Tests used:
# [1] = biological target: the molecule itself; assay: SEC-MALS; molecular mass of the purified protein estimated with a Multi-Angle Light Scattering detector (miniDAWN TREOS, Wyatt Technology Corporation); compared with the theoretical mass of a dimer
# G478del WT = biological target: T1, G478del WT; assay: EMSA; 50 mM Tris-HCl pH 7.5, 250 mM NaCl, 10% glycerol, 0.2 mg/ml BSA, 1 mM DTT, 2 mM EDTA; 1 uM RNA in 10 uL; on ice 60 min; 4% native PAGE at 4 C, ethidium bromide; conditions: protein: recombinant; chain copies: 2; hairpin
# [2] = biological target: T2, G478del WT-mut1 hybrid dimer; assay: as above; conditions: protein: recombinant; tags: 10xHis on mut1 subunit; protein G on WT subunit removed by HRV 3C; copies: 1;1; hairpin
# G478del-mut1 = biological target: T3, G478del-mut1; assay: as above; conditions: protein: recombinant; tags: 10xHis; chain copies: 2; hairpin
# G478 (Rhed) = biological target: T4, G478 (Rhed); assay: as above; conditions: protein: recombinant; (purified as for G4; theoretical dimer 44 kDa implies no GFP); chain copies: 2; hairpin
Binder,stoichiometry N [1],Kd (G478del WT) [µM],Kd [2] [µM],Kd (G478del-mut1) [µM],Kd (G478 (Rhed)) [µM]
"G478del, G478 (DGCR8 amino acids 285–478) with the 370–429 region deleted (domain or fragment, human, UniProt Q8WYQ5 285-478, looked up, Associated with hemin; Theoretical dimer mass ~30 kDa as printed; also called G478del–WT; source: E. coli, purified (as described for G478)) MTKIKTVLKSRGRPPTEPLPDGWIMTFHNSGVPVYLHRESRVVTWSRPYFLGTGSIRKHDPPLSSIPCLHYKKMKDNEEREQSSDCKDESVDLEEFRSYLEKRFDFEQVTVKKFRTWAERRQFNREMKRKQAES",2,,,,
"G478del-mut1, G478del with AGQ in the 461–463 region instead of WAE (domain or fragment, human, UniProt Q8WYQ5 285-478, looked up, Associated with hemin; source: E. coli, purified (as described for G478del)) MTKIKTVLKSRGRPPTEPLPDGWIMTFHNSGVPVYLHRESRVVTWSRPYFLGTGSIRKHDPPLSSIPCLHYKKMKDNEEREQSSDCKDESVDLEEFRSYLEKRFDFEQVTVKKFRTAGQRRQFNREMKRKQAES",2,,,,
ACUGGAAGCCAAGAAAGAUGGGCUUUCAGU (structured_RNA) [10L10_noUGU],,16.8 ± 1.48,11.5 ± 0.77,13.8 ± 0.39,8.57 ± 0.96
"G478, Rhed (RNA-binding heme domain) of DGCR8, amino acids 285–478 (domain or fragment, human, UniProt Q8WYQ5 285-478, looked up, Associated with hemin; also called Rhed dimer; G478 dimer; source: E. coli, purified (as described for the G4 fragments: Ni2+-agarose, SP-sepharose; then Superdex 200)) MTKIKTVLKSRGRPPTEPLPDGWIMTFHNSGVPVYLHRESRVVTWSRPYFLGTGSIRKHDPPLSSIPCLHYKKMKDNEEREQSSDLTPSGDVSPVKPLSRSAELEFPLDEPDSMGADPGPPDEKDPLGAEAAPGALGQVKAKVEVCKDESVDLEEFRSYLEKRFDFEQVTVKKFRTWAERRQFNREMKRKQAES",2,,,,
ACUGGAAGCUGUGAAAGAUGGGCUUUCAGU (structured_RNA) [10L10_UGU],,5.73 ± 0.39,5.43 ± 0.46,9.03 ± 0.61,3.43 ± 0.29
"G460del, G478del with the 461–478 region deleted (domain or fragment, human, UniProt Q8WYQ5 285-460, looked up, Lost its hemin-associating ability; source: E. coli, purified (as G478 and its variants)) MTKIKTVLKSRGRPPTEPLPDGWIMTFHNSGVPVYLHRESRVVTWSRPYFLGTGSIRKHDPPLSSIPCLHYKKMKDNEEREQSSDCKDESVDLEEFRSYLEKRFDFEQVTVKKFRT",2,,,,
